These results are taken from patent US20100222256A1 (BIOKINE THERAPEUTICS, published 2010).

B1: TC14003 (peptide)
peptide: RR[Nal]CY[Cit]K[dK]PYR[Cit]CR-OH
modifications: disulfide 4-13
B2: TN14003 (peptide)
peptide: RR[Nal]CY[Cit]K[dK]PYR[Cit]CR-NH2
modifications: disulfide 4-13
B3: TC14012 (peptide)
peptide: RRXCYXKXPYRXCR
modifications: Nal at 3; L-citrulline at 6; D-citrulline at 8; L-citrulline at 12; C-terminal amide (NH2); Cys4-Cys13 disulfide (cyclised by air oxidation)
B4: TC14005 (peptide)
peptide: RRXCYRKXPYRXCR
modifications: not fully specified; Nal at 3; D-citrulline at 8; L-citrulline at 12; C-terminal OH; Cys4-Cys13 disulfide (cyclised by air oxidation)
B5: TC14018 (peptide)
peptide: XRXCYRKXPYRXCR
modifications: Cit at 1; Nal at 3; D-Cit at 8; Cit at 12; C-terminal amide (NH2); Cys4-Cys13 disulfide (cyclised by air oxidation)
B6: TC14011 (peptide)
peptide: RRXCYXKXPYRXCR
modifications: Nal at 3; Cit at 6; D-Cit at 8; Cit at 12; C-terminal OH; Cys4-Cys13 disulfide (cyclised by air oxidation)
B7: TC14020 (peptide)
peptide: RRXCYRKXPYXXCR
modifications: Nal at 3; D-Cit at 8; Cit at 11 and 12; C-terminal OH as printed; Cys4-Cys13 disulfide (cyclised by air oxidation)
B8: TN14005 (peptide)
peptide: RRXCYRKXPYRXCR
modifications: Nal at 3; D-Cit at 8; Cit at 12; C-terminal amide (NH2); Cys4-Cys13 disulfide (cyclised by air oxidation)

Bridges are numbered along the chain shown (N, C = ends). Where no end group is shown, it is not given here. [ ]: non-standard residue; d: D form. Cit = NC(=O)NCCC[C@H](N)C(=O)O; Nal = naphthylalanine

In the assay the target is CXCR4 ligand. Kind of assay: cell-based or functional assay.
As for B1, the “EC50 (nM): anti-HIV activity, concentration where MT-4 cell death by HIV-1 (IIIB) infection is inhibited by 50% (MTT method)” value was 2.8 nM. The result for B2 reads 0.6 nM; that for B3, 0.4 nM. The result for B4 reads 4 nM. The result for B5 reads 1.2 nM.

Consider B6, for which the “EC50 (nM): anti-HIV activity, concentration where MT-4 cell death by HIV-1 (IIIB) infection is inhibited by 50% (MTT method)” value came out at 0.5 nM. The result for B7 reads 2.7 nM; that for B8, 4.6 nM.
